According to doi:10.1101/2023.11.26.568766 (bioRxiv, 2023):

Target: the molecule itself
Assay: crystal structure

B1: XccOpgD (D379N), OpgD from Xanthomonas campestris pv. campestris (enzyme)
chain: AKAVGLRRLGQPQPFDYAWLKGQARALAKAPYKSHKQVLPGPLESLNWDQYQSIRYRQDHALWADGNGKFQAKFFHLGLYFHTPVHIYDIVDGKAQQLAYDPAAFDYGRSGLGGKQLPKDLGFAGFRLNTRKDTDRDFSAFLGASYFRAVGKEGQYGQSARGLAIDTGTGGPEEFPDFIAYYLEQPADDSDTVVVYGLLDSPSVSGAYRFAITNGEVLVMDIDSALYPRKAIERLGIGPCTSMYQTGENDRRMDWDWRPEIHDTDGLAMWTGGGEWIWRPLCNPPHLRFNMFVDENPRGFGLLQRDRNFDHYQDDGVFYEKRPCLWVEPKSGWGKGSVQLVEIPTVDETFNNIVAFWNPQAKPQPGQELLMGYRLYWGAHPPASSPLAHCVATRTGLGGIVGQKRSHFSWRFAVDFAGGELAALAKDPKAKVEAVLQVSRGTTEIVSARPLHELKGYRAMFDLVPPDEGTQQIDIRLFLRANGKPLTETWLYQWTPPPASERKIY
- binding result: binds
